Reference: patent US20190367592A1 (AC IMMUNE, published 2019)
Where no end group is shown, it is not given here.

T1: MAPT(10-24) (human, also: biotinylated, site not given here)
T1 construct: also called Tau fragment 10-24
T1 peptide: VMEDHAGTYGLGDRK

T2: Tau fragment 1-15 (human, UniProt P10636-8 1-15)
T2 construct: range 1-15
T2 peptide (looked up): MAEPRQEFEVMEDHA

T3: Tau fragment 28-42 (human, UniProt P10636-8 28-42, not fully specified)
T3 construct: range 28-42
T3 peptide (looked up): GYTMHQDQEGDTDAG

T4: Tau fragment 37-51 (human, UniProt P10636-8 37-51)
T4 construct: range 37-51
T4 peptide (looked up): GDTDAGLKESPLQTP

T5: Tau fragment 19-33 (human, UniProt P10636-8 19-33, not fully specified)
T5 construct: range 19-33
T5 peptide (looked up): GLGDRKDQGGYTMHQ


Assays:
[1] = target: T6, full-length human Tau (flTau) (human, UniProt P10636-8 1-441); experiment: SPR, hybridoma Ab on anti-IgG chip, flTau analyte
T6 construct: range 1-441; bought (SignalChem); also called human Tau-441
T6 sequence (P10636 other isoform, or with tags, fused parts or gaps limits assumed): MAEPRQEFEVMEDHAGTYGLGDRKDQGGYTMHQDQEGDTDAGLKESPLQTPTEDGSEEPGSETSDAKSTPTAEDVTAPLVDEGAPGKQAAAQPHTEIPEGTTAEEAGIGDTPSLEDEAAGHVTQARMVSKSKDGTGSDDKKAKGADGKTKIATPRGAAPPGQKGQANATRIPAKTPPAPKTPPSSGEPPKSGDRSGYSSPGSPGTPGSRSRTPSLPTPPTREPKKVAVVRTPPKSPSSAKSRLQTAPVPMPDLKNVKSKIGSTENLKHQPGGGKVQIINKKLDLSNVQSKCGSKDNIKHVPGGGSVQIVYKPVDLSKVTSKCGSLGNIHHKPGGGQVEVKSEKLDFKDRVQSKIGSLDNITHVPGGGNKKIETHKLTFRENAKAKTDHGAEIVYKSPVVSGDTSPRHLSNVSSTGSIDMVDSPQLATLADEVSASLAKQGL
Description: Affinity of non-purified antibodies in serum-free hybridoma supernatants was estimated by surface plasmon resonance using a Biacore T-100 instrument (GE Healthcare, United Kingdom). Antibodies were immobilized onto an anti-IgG biosensor chip, and flTau (SignalChem, Canada) was used as the target analyte. Kinetic analysis was done using a 1:1 Langmuir fit model.
For affinity measurements to flTau, antibodies were measured using SPR on a Biacore instrument, with the KDs determined. Biacore affinity measurements were done by immobilizing antibodies on an anti-IgG chip and using flTau as the target analyte.

[2] = target: T7, recombinant human Tau monomer, 2N4R isoform (amino acids 2-441) (human, UniProt P10636-8 2-441); experiment: SPR, mIgG2a captured, Tau monomer analyte, 1:1 fit
T7 construct: range 2-441; N-terminal His-tag removed with TEV protease; also called monomeric Tau
T7 sequence (P10636 other isoform, or with tags, fused parts or gaps limits assumed): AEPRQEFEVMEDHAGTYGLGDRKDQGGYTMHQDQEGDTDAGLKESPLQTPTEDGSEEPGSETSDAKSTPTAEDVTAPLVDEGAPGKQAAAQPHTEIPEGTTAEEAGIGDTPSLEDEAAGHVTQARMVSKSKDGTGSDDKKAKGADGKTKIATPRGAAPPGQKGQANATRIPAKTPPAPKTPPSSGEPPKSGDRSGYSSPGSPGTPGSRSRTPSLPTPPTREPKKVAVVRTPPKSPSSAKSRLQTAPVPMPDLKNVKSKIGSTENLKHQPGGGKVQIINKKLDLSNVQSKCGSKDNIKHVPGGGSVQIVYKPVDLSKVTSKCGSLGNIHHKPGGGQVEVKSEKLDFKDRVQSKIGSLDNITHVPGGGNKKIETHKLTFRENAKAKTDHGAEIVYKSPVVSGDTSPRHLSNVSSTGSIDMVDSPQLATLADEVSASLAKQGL
Source text: Antibody heavy and light chains were constructed via gene synthesis and subcloning of the resulting DNA into murine IgG2a (heavy chain) and murine kappa (light chain) mammalian expression vectors. Antibodies were expressed in CHO or 293T cells by transient co-transfection of the heavy chain and light chain plasmids and were purified with affinity resin MabSelectSure (GE Healthcare Life Sciences). Purified recombinant antibodies were screened for binding to Tau monomer protein on a Biacore T200 surface plasmon resonance instrument using a mouse IgG capture kit and a Series S CM5 chip. Antibodies in mIgG2a format diluted in 10 mM HEPES pH7.4, 150 mM NaCl, 0.05% Tween 20 (running buffer, HBSP) were captured for 30 or 45 seconds at a concentration of 1 μg/ml (antibodies 26C1, 94B2-C1, 52F6-F11.v1, 52F6-F11.v2, 11E10-B8, 55E7-F11, 125B1-H3, 123E9-A1, 30G1-B2, 66F5-A1, 89F4-A1, 93A8-D2 and 126F11-G11) or for 70 or 150 seconds at a concentration of 0.1 μg/ml (antibodies 19H6-F7, 3A4-H4, 54C1-H11 and 37D3-H9) using a flow rate of 10 μl/min. […] Association and dissociation times were monitored for 180-480 seconds and for 300-600 seconds respectively. Antibody 37D3-H9 was selected for further analysis due to the high affinity (Table 6) and the absence of NXS/T glycosylation motifs in the CDRs.

[3] = target: T1, MAPT(10-24); experiment: ELISA on Tau 15-mer peptides, O.D.; conditions of this panel not given
[4] = target: T2, Tau fragment 1-15; experiment: as above
[5] = target: T3, Tau fragment 28-42; experiment: as above
[6] = target: T4, Tau fragment 37-51; experiment: as above
[7] = target: T5, Tau fragment 19-33; experiment: as above
[8] = target: T7, recombinant human Tau monomer, 2N4R …; experiment: SPR high-resolution kinetics, hIgG1
[9] = target: T7, recombinant human Tau monomer, 2N4R …; experiment: SPR screen, hIgG captured, Tau monomer analyte
Source text: Antibody 125B11-H3 was humanized onto VH3 and Vκ1 consensus frameworks. The heavy chain graft included murine residues at position 78 (Kabat numbering system). The Vκ1 graft included murine residues in framework positions 43 and 87. The light chain of 113F5-F7 was also humanized onto the Vκ1 framework, with additional murine residues at framework positions 43 and 87. Humanized variant heavy chains (125B11) and light chains (125B11 and 113F5-F7) were co-transfected in multiple combinations and purified in 96-well format as described above. Humanized variants were then screened for affinity for human Tau monomer using the Biacore human IgG capture kit, a Series S CM5 chip and a Biacore T200 instrument. Antibodies were diluted to 2 μg/ml and captured for 15 seconds at 10 μl/min. Association and dissociation of 0, 100 and 500 nM human Tau monomer in HBSP was monitored for 180s and 300s respectively at a flow rate of 40 μl/min. A 1:1 binding model was applied to the results (Table 9).
Variants hu125B11.v17 (HC3+LC1), hu125B11.v26 (HC4+LC2) and hu125B 11.v28 (HC4+LC4) were selected for high-resolution kinetic analysis based on the affinity screen (Table 10). Antibody 94B2-C1 was humanized onto VH1 and Vx2 frameworks. The heavy chain graft also included murine residues at position 28, 29, 67, 69, 71, and 73 (Kabat numbering system). The Vκ2 graft also included murine residues in framework positions 2, 36, and 46. […] Variant hu94B2.v105 (heavy chain variant 94B2.HCl, light chain variant 94B2.LC13) was selected for detailed SPR characterization (Table 11).

[10] = target: T7, recombinant human Tau monomer, 2N4R …; experiment: SPR, hIgG captured, Tau monomer analyte, 1:1 fit
Description: Affinity of selected antibodies was assessed at 25° C. using a Biacore T200 instrument, the GE Biacore human IgG capture kit and a CM5 Series S chip. The hIgG were diluted to 0.25 μg/ml in 10 mM HEPES pH7.4, 150 mM NaCl, 0.05% Tween 20 (running buffer, HBSP) and captured at a flow rate of 10 μl/min for 150 seconds. Kinetic data was collected for Human Tau monomer injected at concentrations of 0, 0.4, 1.2, 3.7, 11, 11, 33 and 100 nM in HBSP, using a flow rate of 30 μl/min, a 300 second association phase and a 600 second dissociation phase. Between cycles the surface was regenerated using two sequential 30 second injections of 3M MgCl at 10 μl/min. Data was fit to a 1:1 binding model (Table 15).

[11] = target: T7, recombinant human Tau monomer, 2N4R …; experiment: SPR single-cycle, human Fab capture kit, Tau monomer analyte; mean ± range, n=2
Description: Affinity of the humanized antibody variants was measured at 25° C. using a Biacore T200 instrument, the GE Biacore human FAb capture kit, and a CM5 Series S chip. Antibodies were diluted to 1 μg/ml in HBSP (10 mM HEPES pH7.4, 150 mM NaCl, 0.05% Tween 20) and captured at a flow rate of 10 μl/min for 180 seconds. Kinetic data were collected for human Tau monomer injected at 1.2, 3.7, 11, 33 and 100 nM in HBSP using the Single Cycle Kinetics methodology and a flow rate of 30 μl/min. Each concentration of Tau monomer was injected for a period of 3 minutes and dissociation was monitored for ten minutes. Between cycles, the surface was regenerated with two sequential one-minute injections of 10 mM glycine pH2.1. Data was fit to a 1:1 binding model using BIAEvaluation software. Each antibody was analyzed twice within the experiment; data in Table 22 are shown as mean±range.

| Binder | Kd [1] | Kd [2] | koff [2] | kon [2] | binding result [3] | binding result [4] | binding result [5] | binding result [6] | binding result [7] | Kd [8] | koff [8] | kon [8] | Kd [9] | Kd [10] | koff [10] | kon [10] | Kd [11] | koff [11] | kon [11] |
| --- | --- | --- | --- | --- | --- | --- | --- | --- | --- | --- | --- | --- | --- | --- | --- | --- | --- | --- | --- |
| 94B2-C1 (antibody, mouse IgG2a, V domains shown) VH: EVQLQQSGPELVKPGASMKISCKASGYSLTGYTMNWVKQSHGKNLEWIGLISPYNGVTSYNQKFKGKATLTVDKSSNTAYMELLSLTFEDSAVYYCARQGAYWGQGTLVTVSA VL: not shown | 1.9 nM | 6 nM | 0.0003 s⁻¹ | 50000 M⁻¹ s⁻¹ | binds | binds | no binding (tested: not given) | no binding (tested: not given) | – | – | – | – | – | – | – | – | – | – | – |
| 54C1-H11 (antibody, mouse IgG2a, V domains shown) VH: EVQLVESGGDLVKPGGSLKVSCVASGFTFRSYGMSWVRQTPDKRLDWVATISSGGNYTYYPDSVKGRFTISRDNAKNTLYLQMSSLKSEDTAMYYCASSYSGAMDYWGQGTSVTVSS VL: DTVMTQSPLSLPVSLGDQASISCRSSQSIVHSNGNTYLEWYLQKPGQSPKLLIYTVSNRFSGVPDRFSGSGSGTDFTLKISRVEAEDLGVYYCFQGSHVPWTFGGGTKLEIK | 1.5 nM | 0.6 nM | 0.0002 s⁻¹ | 300000 M⁻¹ s⁻¹ | binds | no binding (tested: not given) | no binding (tested: not given) | no binding (tested: not given) | no binding (tested: not given) | – | – | – | – | – | – | – | – | – | – |
| 123E9-A1 (antibody, mouse IgG2a, V domains shown) VH: EVQLQQSGPELVKPGASVKMSCKASGYTFTDYYMKWVKQSHGKSLEWIGDIDPNNGGTSYNQKFKGKATLTVDKSSSTAYMQLNSLTSEDSAVYYCARSAGFGDSFSFWGLGTLVTVSA VL: DVLMTQTPLSLPVSLGDQASISCRSSQSIVHSNGNTYLEWYLQKPGQSPKLLIYKVSNRFSGVPDRFSGSGSGTDFTLKISRVEAEDLGFYYCFQGSHVPPTFGGGTKLEIK | 1.8 nM | 52 nM | 0.02 s⁻¹ | 400000 M⁻¹ s⁻¹ | no binding (tested: not given) | no binding (tested: not given) | binds | no binding (tested: not given) | binds | – | – | – | – | – | – | – | – | – | – |
| 89F4-A1 (antibody, mouse IgG2a, V domains shown) VH: EVQLVESGGGLVQPKGSLKLSCAASGFTFNTYAMNWVRQAPGKGLEWVARIRSKSNNYAAYFADSVKDRFTISRDDSQTMLYLQMNNLKSEDTAMYYCVSGGNYVPFAYWGQGTLVTVSA VL: NIMMTQSPSSLAVSAGEKVTMSCKSSQSVFYSSEQRNYLAWYQQKPGQSPKLLISWASTRESGVPDRFTGSGSGTDFTLTISSVQGEDLAVYYCHQYLSSFTFGSGTKLEIK | 2.9 nM | 27 nM | 0.007 s⁻¹ | 300000 M⁻¹ s⁻¹ | no binding (tested: not given) | no binding (tested: not given) | binds | binds | no binding (tested: not given) | – | – | – | – | – | – | – | – | – | – |
| hu37D3-H9.v1 hIgG4.S228P (antibody, also called hu37D3.v1 hIgG4) heavy: not shown light: EDQLTQSPSSLSASVGDRVTITCRSSQSIVHSNGNTYFEWYQQKPGKSPKLLIYKVSNRFSGVPSRFSGSGSGTDFTLTISSLQPEDFATYYCFQGSLVPWTFGQGTKVEIKRTVAAPSVFIFPPSDEQLKSGTASVVCLLNNFYPREAKVQWKVDNALQSGNSQESVTEQDSKDSTYSLSSTLTLSKADYEKHKVYACEVTHQGLSSPVTKSFNRGEC | – | – | – | – | – | – | – | – | – | – | – | – | – | 2 nM | 0.0013 s⁻¹ | 670000 M⁻¹ s⁻¹ | 2.3 nM | 0.001 s⁻¹ | 600000 M⁻¹ s⁻¹ |

Continued, values first:

| Kd [1] | Kd [2] | koff [2] | kon [2] | binding result [3] | binding result [4] | binding result [5] | binding result [6] | binding result [7] | Kd [8] | koff [8] | kon [8] | Kd [9] | Kd [10] | koff [10] | kon [10] | Kd [11] | koff [11] | kon [11] | Binder |
| --- | --- | --- | --- | --- | --- | --- | --- | --- | --- | --- | --- | --- | --- | --- | --- | --- | --- | --- | --- |
| – | – | – | – | – | – | – | – | – | 3.7 nM | 0.0003 s⁻¹ | 80000 M⁻¹ s⁻¹ | 4.1 nM | – | – | – | – | – | – | hu94B2.v105 (94B2.HC1 + 94B2.LC13) (antibody, IgG1, V domains shown, also called hu94B2 HC1 + LC13) VH: EVQLVQSGAEVKKPGASVKVSCKASGYSLTGYTMNWVRQAPGQGLEWIGLISPYNGVTSYNQKFKGRATLTVDKSTSTAYLELSSLRSEDTAVYYCARQGAYWGQGTLVTVSS VL: DIVMTQTPLSLPVTPGQPASISCKSSQSLLDSDGKTYLNWLLQKPGQSPQRLIYLVSKLDSGVPDRFSGSGSGTDFTLKISRVEAEDVGVYYCWQGTHFPWTFGQGTKVEIK |
| – | – | – | – | – | – | – | – | – | – | – | – | – | 1.5 nM | 0.0011 s⁻¹ | 690000 M⁻¹ s⁻¹ | – | – | – | hu37D3-H9.v28.A4 hIgG1 (antibody, V domains shown, human IgG1, kappa) VH: EVQLVESGGGLVQPGGSLRLSCAASGLIFRSYGMSWVRQAPGKGLEWVATINSGGTYTYYPDSVKGRFTISRDNSKNTLYLQMNSLRAEDTAVYYCANSYSGAMDYWGQGTLVTVSS VL: DDVLTQTPLSLPVTPGQPASISCRSSQSIVHSNGNTYLEWYLQKPGQSPQLLIYKVSNRFSGVPDRFSGSGSGTDFTLKISRVEAEDVGVYYCFQGSLVPWTFGQGTKVEIK |
